Reference: article PMC7414021, “Dodecin as carrier protein for immunizations and bioengineering applications” (Scientific Reports, 2020)

Legend:
Test in all cases: SEC
[1] = target: SpyT-PAS2-mtDod (Mycobacterium tuberculosis)
[2] = target: SpyT-mtDod (Mycobacterium tuberculosis)
[3] = target: SpyT-mtDod-SnpT (Mycobacterium tuberculosis)
[4] = target: mtDod-GSG-Lys (Mycobacterium tuberculosis)
[5] = target: mtDod-PAS2-SpyT (Mycobacterium tuberculosis)
[6] = target: mtDod-PAS-Met (Mycobacterium tuberculosis)
[7] = target: mtDod-SpyT (Mycobacterium tuberculosis)
[8] = target: mtDod-msfGFP-H8 (Mycobacterium tuberculosis | not stated)

Substance SpyT-PAS2-mtDod has a stoichiometry N [1] of 12.

SpyT-mtDod gave a stoichiometry N [2] of 12.

For SpyT-mtDod-SnpT, the stoichiometry N [3] was 12.

In the case of mtDod-GSG-Lys, the stoichiometry N [4] is reported as 12.

mtDod-PAS2-SpyT showed a stoichiometry N [5] of 12.

Work on mtDod-PAS-Met yielded a stoichiometry N [6] of 12.

With mtDod-SpyT the stoichiometry N [7] was 12.

Substance mtDod-msfGFP-H8 has a stoichiometry N [8] of 12.
